In data set [1] the test system is MS2 coat protein. Put plainly: apparent KD of MS2 coat protein, switch ON state; designed switch direction (-1 OFF switch, 1 ON switch): 1; higher = weaker reporter binding. Conditions: FMN input: 0 or 200 uM; Eterna round: R93 (includes R88 designs). In a few lines:
(§1)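 Designed RNA switches were transcribed on-chip from Illumina sequencing clusters. They were then titrated with SNAP-549-labelled MS2 coat protein (twofold steps, 0.7 or 1.5 nM to 3 µM; 0.8–1.5 h to 10–20 min per step) in 100 mM Tris-HCl pH 7.5, 80 mM KCl, 4 mM MgCl2, without or with constant ligand. Apparent KD is the per-design median of normalised cluster binding-curve fits.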

The test system of data set [2] is MS2 coat protein. Description: apparent KD of MS2 coat protein, switch OFF state (with FMN for OFF switches, without FMN for ON switches); designed switch direction (-1 OFF switch, 1 ON switch): 1; higher = weaker reporter binding. Conditions: FMN input: 0 or 200 uM; Eterna round: R93 (includes R88 designs). In a few lines:
as §1

Consider “AAAAGACAUGAGGAUCACCCAUGUCAAAAGACAUGAGGAUAUGUACAGACUUCGGUCUGUACAGAAGGCAUAAAAA [SS1 - 1060]”, for which the entries for the “apparent KD of MS2 coat protein” value in the data set with MS2 coat protein [1] and in the data set with MS2 coat protein [2] were 18.6 nM and 32.5 nM, respectively.

“AAAAGACAUGAGGAUCACCCAUGUCCUCGGACAUGAGGAUAUGUACAGACUUCGGUCUGUACAGAAGGCAUAAAAA [SS1 - 1063]”: the results for the “apparent KD of MS2 coat protein” value in the data set with MS2 coat protein [1] and with MS2 coat protein [2] were 71.2 nM and 349 nM, respectively.

As to “AAAAGACAUGAGGAUCACCCAUGUGAAAACGUAGGAGGAUAUGUCUGGAAACCAGACUGGACAGAAGGCCUGUGUC [SS1 - 32]”, the “apparent KD of MS2 coat protein” value worked out at 26.7 nM in the data set with MS2 coat protein [1] and 33.1 nM with MS2 coat protein [2].

As for “AAAAUAAAAUAAAAGGAUAUAAAAUAAAAAACAUGAGGAUCACCCAUGUAAAAACAUGGGAAAAAAAAGAAGGAAAAAUAAAAAA [SS2: 71 No MS2]”, the “apparent KD of MS2 coat protein” value with MS2 coat protein [1] is 603 nM; in the data set with MS2 coat protein [2], 1280 nM.

For the sequence “AAAAUACAUGAGGAUCACCCAUGUGAAAAUAUGGGAGGAUAUACCGAAAAAAAAAAAAAGGUAGAAGGCCCAAAAA [SS! 1 MT 5]”, the “apparent KD of MS2 coat protein” value amounted to 17.1 nM with MS2 coat protein [1] and 69.2 nM with MS2 coat protein [2].

As for “AAACCACAUGAGGAUCACCCAUGUAAAAAUAUGGGAGGAUAUCGGAAUAAAAUAAAGAAACGAGAAGGCCUAAAAG [59%, Flamingo, 4]”, the “apparent KD of MS2 coat protein” value was determined as 69.3 nM in the data set on MS2 coat protein [1] and 292 nM in the data set on MS2 coat protein [2].

With “AAACCACAUGAGGAUCACCCAUGUCCAAAAAAACAAGGAUAUAUAAAAAAAAAAAAAAAAAUAGAAGGUGUAAAAA [<insert title here>]”, the “apparent KD of MS2 coat protein” value in the data set with MS2 coat protein [1] turned out to be 75.5 nM; in the data set on MS2 coat protein [2], 113 nM.

On to “AAACUGGAGGACAAGGAUAUGUGCUCUACGACAUGAGGAUCACCCAUGUGAGACGUAGUAGUGAAACAGAAGGUGUCCUAUUGUA [Tiarri]”, for which the “apparent KD of MS2 coat protein” value in the data set with MS2 coat protein [1] came out at 11 nM; in the data set on MS2 coat protein [2], 20.4 nM.

With “AAAGAAAAACUAGAGGAUAUCCGAAUGGUAACAUGAGGAUCACCCAUGUGAAGAAAGGAACAUGAGGAGAAGGCUAGAAGAAAAA [JL Nando mod 10]”, the “apparent KD of MS2 coat protein” value came to 18.8 nM in the data set with MS2 coat protein [1] and 23.4 nM in the data set with MS2 coat protein [2].

Consider “AAAGAAAAACUAGAGGAUAUCCGAGUGGUAACAUGAGGAUCACCCAUGUGACGAAAGGAACAUGAGGAGAAGGCUAGAAGAAAAA [JL Nando mod 9]”, for which the “apparent KD of MS2 coat protein” value in the data set with MS2 coat protein [1] turned out to be 46.3 nM; with MS2 coat protein [2], 315 nM.

With “AAAGAAAAACUAGAGGAUAUCUGAGUGGUAACAUGAGGAUCACCCAUGUGAAGAAAGGAGCAUGAGGAGAAGGCUAGAAGAAAAA [JL Nando mod 22]”, the “apparent KD of MS2 coat protein” value with MS2 coat protein [1] stood at 11.7 nM; with MS2 coat protein [2] it was 59 nM.

With “AAAGACGUGCAUCAGGAUAUGUUCCGAGACACAUGAGGAUCACCCAUGUGGACGAAGUCUCGGGCACAGAAGGGAUCACUCAUAA [Latibe]”, the “apparent KD of MS2 coat protein” value with MS2 coat protein [1] is 15.4 nM; with MS2 coat protein [2] it was 21.4 nM.

Turning to “AAAUAAAGGACUAAGGAUAUAUCACAUGAAACAUGAGGAUCACCCAUGUAAUAAUACAAAGGGUGAUAGAAGGUAGUCCACAAACA [Pariah 5 (MS2 Riboswitches - Same State 2)]”, the “apparent KD of MS2 coat protein” value with MS2 coat protein [1] came to 14.9 nM; in the data set with MS2 coat protein [2], 37.1 nM.

As for “AAAUAAAUAAAAAAGGAUAUAAAAAAGUACACAUGAGGAUCACCCAUGUGUACACAUGGGUGAUCCUAGAAGGAAAAAUAAAAAA [SS2: 91 No MS2]”, the “apparent KD of MS2 coat protein” value with MS2 coat protein [1] worked out at 117 nM; in the data set with MS2 coat protein [2] it was 73.3 nM.

For the sequence “AAAUAAAUGACUAAGGAUAUAUCAUAAGAAACAUGAGGAUCACCCAUGUAAUAAUAAAAAGGGUGAUAGAAGGUAGUCAACAAAC [74%, More Paria 4]”, the entries for the “apparent KD of MS2 coat protein” value with MS2 coat protein [1] and in the data set on MS2 coat protein [2] were 19.8 nM and 114 nM, respectively.

On to “AAAUAAAUGACUAAGGAUAUCUCAGAGAAAACAUGAGGAUCACCCAUGUAAUAAUAACAUGUGUGAGAGAAGGUAGUCAACAAAC [Same State 2.4 (Pariah 4 -changed stack on 9nt hairpin)]”, for which the “apparent KD of MS2 coat protein” value with MS2 coat protein [1] is 16.1 nM; with MS2 coat protein [2] it was 70.1 nM.

For the origin of these results see the supplement of paper PMC9170038.
